Molecular target: Human interleukin-18 (recombinant human IL-18) (human) (UniProt Q14116)
Assay: cell-based or functional assay

Sequence of IL-18 bp (IL-18 binding protein as used in the bioassays) (O95998 31-194 limits assumed): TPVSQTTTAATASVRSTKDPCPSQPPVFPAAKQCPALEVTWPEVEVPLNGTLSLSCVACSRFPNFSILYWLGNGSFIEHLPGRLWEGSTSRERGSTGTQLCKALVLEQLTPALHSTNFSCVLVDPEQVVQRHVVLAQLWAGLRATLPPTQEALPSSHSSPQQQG
Sequence of Human interleukin-18 (recombinant human IL-18) (human) (Q14116 37-193 limits assumed): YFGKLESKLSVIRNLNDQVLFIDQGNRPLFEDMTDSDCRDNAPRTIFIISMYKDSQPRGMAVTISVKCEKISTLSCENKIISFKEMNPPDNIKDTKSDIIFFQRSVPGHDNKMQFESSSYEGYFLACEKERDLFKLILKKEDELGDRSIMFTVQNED

IL-18 bp (IL-18 binding protein as used in the bioassays) (from UniProt O95998 31-194)
IC50, LPS-stimulated IFNγ release, human PBMC, Donor 1 10% serum: 0.024
IC50, LPS-stimulated IFNγ release, human PBMC, Donor 1 25% serum: 0.064
IC50, LPS-stimulated IFNγ release, human PBMC, Donor 3 10% serum: 0.032
IC50, LPS-stimulated IFNγ release, human PBMC, Donor 3 25% serum: 0.046
complete inhibition of IL-18 mediated IFNγ release, LPS-stimulated human PBMC, 10% or 25% human serum: > 1 µg/mL
